Substrate: C[N+](C)(C)C[C@H](O)CC(=O)[O-]
Test: Tracer flux transport measurement in Xenopus laevis oocytes injected with cRNA comprising SEQ ID NO: 4
Type: cell-based, human
Conditions: other: concentration dependency of L-carnitine transport, Michaelis-Menten, uptake measured for 1 hour, FIG. 2
Method: The transport measurements of radioactively labeled compounds were executed using Xenopus laevis oocytes in the so-called “tracer flux method”, wherein the transport rate of substrates across the oocyte membrane into the cytosol is determined.
A Xenopus laevis oocyte was injected with a cRNA molecule comprising SEQ ID NO: 4.
Injected oocytes were kept in the culture medium ORi comprising gentamycin (50 mg/L) at 18° C. until the measurement of substrate uptake. Injured, acutely altered or later heavily damaged cells were discarded.
After 72 hours the oocyte was used for screening for a carnitine transporter agonist or antagonist. […]
The oocytes were washed four times in 15 ml ice cold ORi. […] The radioactivity of the lysates was determined in a liquid scintillation counter comprising a correction for the luminescence and an external standard. Each vial was counted for 5 minutes. […]
For the determination of concentration-dependent substrate uptake serial dilutions of the investigated substrate were prepared and the radioactivity was distributed, such that in each reaction mixture between 10000 and 20000 cpm were counted in the supernatant. For the KM determination the substrate uptake was measured for 1 hour. […] The transport rates were calculated and graphically plotted against the substrate concentration and adapted mathematically according to the Michaelis-Menten equation.

B1: carnitine transporter comprising the amino acid sequence SEQ ID NO: 1 (Homo sapiens) (protein)
chain: MVRLVLPNPGLDARIPSLAELETIEQEEASSRPKWDNKAQYMLTCLGFCVGLGNVWRFPYLCQSHGGGAFMIPFLILLVLEGIPLLYLEFAIGQRLRRGSLGVWSSIHPALKGLGLASMLTSFMVGLYYNTIISWIMWYLFNSFQEPLPWSDCPLNENQTGYVDECARSSPVDYFWYRETLNISTSISDSGSIQWWMLLCLACAWSVLYMCTIRGIETTGKAVYITSTLPYVVLTIFLIRGLTLKGATNGIVFLFTPNVTELAQPDTWLDAGAQVFFSFSLAFGGLISFSSYNSVHNNCEKDSVIVSIINGFTSVYVAIVVYSVIGFRATQRYDDCFSTNILTLINGFDLPEGNVTQENFVDMQQRCNASDPAAYAQLVFQTCDINAFLSEAVEGTGLAFIVFTEAITKMPLSPLWSVLFFIMLFCLGLSSMFGNMEGVVVPLQDLRVIPPKWPKEVLTGLICLGTFLIGFIFTLNSGQYWLSLLDSYAGSIPLLIIAFCEMFSVVYVYGVDRFNKDIEFMIGHKPNIFWQVTWRVVSPLLMLIIFLFFFVVEVSQELTYSIWDPGYEEFPKSQKISYPNWVYVVVVIVAGVPSLTIPGYAIYKLIRNHCQKPGDHQGLVSTLSTASMNGDLKY
notes: expressed in transfected cells; host or cells: Xenopus laevis oocytes injected with cRNA
  Km: 15 µM

Reference: patent US7879563B2, “Method of screening for a carnitine transporter agonist or antagonist and its uses” (Sanofi-Aventis Deutschland GmbH, priority 2004, dated 2011)
